Measured values: the supplement of paper PMC9170038

System: MS2 coat protein
Test: apparent KD of MS2 coat protein; designed switch direction (-1 OFF switch, 1 ON switch): -1; higher = weaker reporter binding
Summary of the method: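 Designed RNA switches were transcribed on Illumina chips by stalled E. coli RNA polymerase and titrated with SNAP-549-labelled MS2 coat protein from 0.7 or 1.5 nM, doubling to 3 µM. Step length ran from 0.8–1.5 h at the lowest concentration to 10–20 min at the highest. The apparent KD is the median over clusters for each design, from curve-fitted normalised cluster fluorescence.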

[1] = Eterna round: R95, input ligand: FMN 200 uM
[2] = Eterna round: R95, input ligand: microRNA oligo, concentration not stated
[3] = Eterna round: R95, input ligand: none
[4] = input ligand: microRNA oligo, concentration not stated

GGUCGGCGAGGAUAUACAUGAGGAUCACCCAUGUGAGAUAGUGCACGCGUACGUGUACGUAGAAGGCGCUGACG [JL-ex3-3.25 salish99 mod] (puzzle: Exclusion 3)
apparent KD of MS2 coat protein [1]: 26.1 nM
apparent KD of MS2 coat protein [2]: 12.4 nM
apparent KD of MS2 coat protein [3]: 8.3 nM

GGUCUUCAAGUCAGGAUAUCGUCUAAUCGGUCUGGCGAGAAGGGACAUGAGGAUCACCCAUGUCGUCUCAUCAG [Ex4 #15] (Eterna round: R97, puzzle: Brourd's mod of Exclusion 4)
apparent KD of MS2 coat protein (input ligand: FMN 200 uM): 27.1 nM
apparent KD of MS2 coat protein (input ligand: none): 20.4 nM

GGUGAAGCAGGAUAUGUAUCGAUAUACAUGAGGAUCACCCAUGUCAUGUUUGAAUUGCAUAUAGAAGGGCUUCACC [Exclusion 5 (FMN-MS2 slide v.3)] (Eterna round: R97, puzzle: Exclusion 5)
apparent KD of MS2 coat protein (input ligand: FMN 200 uM): 16.4 nM
apparent KD of MS2 coat protein (input ligand: none): 13.8 nM

GGUGAGAGCAAGGAUAUGCAGAAGAGAGAAAGAGCAGAAGGUGCUACAUGAGGAUCACCCAUGUAGGAUGUGUU [JR_E6_Sub013] (puzzle: Exclusion 6)
apparent KD of MS2 coat protein [1]: 15.2 nM
apparent KD of MS2 coat protein [2]: 13.4 nM
apparent KD of MS2 coat protein [3]: 13.4 nM

GGUGCGUAUGUGAGGAUAUGCUGGUCCUUGGAUCCGCAGAAGGCACAUGAGGAUCACCCAUGUGGUGUCGUACC [salish99_Bmod_Ex4_022] (puzzle: Brourd's mod of Exclusion 4)
apparent KD of MS2 coat protein [2]: 139 nM

GGUGCGUAUGUGAGGAUAUGCUGGUCCUUGGAUCUGCAGAAGGCACAUGAGGAUCACCCAUGUGGUGUCGUACC [salish99_Bmod_Ex4_024] (Eterna round: R96, puzzle: Brourd's mod of Exclusion 4)
apparent KD of MS2 coat protein (input ligand: FMN 200 uM): 105 nM
apparent KD of MS2 coat protein [4]: 411 nM
apparent KD of MS2 coat protein (input ligand: none): 506 nM

GGUGCGUAUGUGAGGAUAUGCUGGUCCUUGGAUCUGCAGAAGGCACAUGAGGAUCACCCAUGUGGUGUCGUACC [salish99_Bmod_Ex4_024] (puzzle: Brourd's mod of Exclusion 4)
apparent KD of MS2 coat protein [2]: 276 nM

GGUGCGUAUGUGAGGAUAUGCUGGUCCUUGGCUCGGCAGAAGGCACAUGAGGAUCACCCAUGUGGUGUCGUGCC [salish99_Bmod_ex4_056] (Eterna round: R96, puzzle: Brourd's mod of Exclusion 4)
apparent KD of MS2 coat protein (input ligand: FMN 200 uM): 46 nM
apparent KD of MS2 coat protein [4]: 14.9 nM
apparent KD of MS2 coat protein (input ligand: none): 19.8 nM

GGUGCGUAUGUGAGGAUAUGCUGGUCCUUGGCUCGGCAGAAGGCACAUGAGGAUCACCCAUGUGGUGUCGUGCC [salish99_Bmod_ex4_056] (puzzle: Brourd's mod of Exclusion 4)
apparent KD of MS2 coat protein [2]: 15.3 nM

GGUGCGUUUGUGAGGAUAUGCUGGUCCUUGGAUCAGCAGAAGGCACAUGAGGAUCACCCAUGUGGUGUCGUCCC [salish99_Bmod_Ex4_041] (puzzle: Brourd's mod of Exclusion 4)
apparent KD of MS2 coat protein [2]: 210 nM

GGUGCGUUUGUGAGGAUAUGCUGGUCCUUGGUUCCGCAGAAGGCACAUGAGGAUCACCCAUGUGGUGUCGUACC [salish99_Bmod_Ex4_044] (puzzle: Brourd's mod of Exclusion 4)
apparent KD of MS2 coat protein [2]: 148 nM

GGUGCGUUUGUGAGGAUAUGCUGGUCCUUGGUUCUGCAGAAGGCACAUGAGGAUCACCCAUGUGGUGUCGUACC [salish99_Bmod_Ex4_042] (puzzle: Brourd's mod of Exclusion 4)
apparent KD of MS2 coat protein [2]: 64.5 nM

GGUGGACAUGAGGAUCACCCAUGUGAGGAUAUCGGCCGGCUCGUGGUGGCUGGCUUCUCGAGAAGGCGCAUAGU [Exclusion 1 V75] (puzzle: Exclusion 1)
apparent KD of MS2 coat protein [2]: 50.6 nM

GGUGGACAUGAGGAUCACCCAUGUGAGGAUAUCGGCCGGUUCGCGGUGGCUGGCGUCUCGAGAAGGCACAUAGU [Exclusion 1 V72] (puzzle: Exclusion 1)
apparent KD of MS2 coat protein [2]: 86.4 nM

GGUGGACAUGAGGAUCACCCAUGUGAGGAUAUCGGCUGGCUAGCGGCGGACGGCUGCUCGAGAAGGCGCAUUGU [Exclusion 1 V84] (puzzle: Exclusion 1)
apparent KD of MS2 coat protein [2]: 61.1 nM

GGUGGACAUGAGGAUCACCCAUGUGAGGAUAUCGGCUGGCUAGCGGCGGAUGGCUUCUCGAGAAGGCGCAUUGU [Exclusion 1 V82] (puzzle: Exclusion 1)
apparent KD of MS2 coat protein [2]: 67.7 nM
